Consider two molecules from patent publication US20230189818A1, “RNA-BASED CONTROL OF BOTRYTIS” (priority 2021, published 2023).

One series concerns Botrytis cinerea conidia. In words: In vitro liquid-based assay (fungal biomass, 96-well plates, Cytation 5). The format is cell-based. The settings on record: co-incubated with conidia for three days, vs untreated control. On the procedure:
Fungal culture. The Botrytis cinerea was plated each week the culture onto Malt Extract Agar (MEA) from long-term storage on silica stored at 4° C. Three pellets of silica were added to the center of a MEA agar plate and grown at room temperature without parafilm/tape seal for 10-14 days before use; a culture 12 days old was typically used.
Spore and media preparation. A pure culture of B. cinerea was flooded with a 0.01% Triton x-100 solution and conidia scraped free with a sterile hockey stick. The suspension was transferred to two, 1.5 mL centrifuge tubes and centrifuged at 8000 rpm for two minutes. The supernatant was discarded, pelleted spores washed twice with sterile water, then resuspended in sterile water. Conidia were quantified using a hemacytometer and diluted to a final concentration of 5000 conidia/mL stock. A stock solution of 1.25× minimal media was prepared for the assay setup using the components below. Once the stock solution was made, the pH was adjusted to 6.0 using NaOH or KOH, then filter sterilized through a 0.2 um filter tower and vacuum pump and stored at 4° C. The Kao & Michayluk Vitamins (100×) is a filter sterilized stock solution. The stock contains vitamins and amino acids as described by Kao & Michayluk. After filter sterilization, 20 mg of 4-Aminobenzoic acid in 100 ml of solution was added.
Experimental setup. Screening assays were setup in 96-well plates with conidia co-incubated with treatments (controls and dsRNAs) for three days before determining fungal biomass. Each treatment was replicated eight times within a single plate. In each well consisted of 12.5 μl of conidia suspension, 25 μl of the treatment, 12.5 μl of sterile deionized water, and 200 μl of minimal media. Each plate was covered with a breath right film and placed in the percival growth chamber at 23° C. on the shaking platform set to 120 RPM with 24-hour lighting. Plates were incubated for 72 hours before determining fungal growth.
Reading assay plate. Fungal biomass was determined by reading plates with the Cytation 5 machine. The program was set to compile 8 photo slices per well under brightfield microscopy with a 2.5× lens to measure biomass.
Data analysis. Analysis will automatically run on Cytation5 to determine final biomass.
Results are shown in Table 1B representing the average reduction in biomass vs. control for tested sequences across several runs described above.

Series [1] concerns Botrytis cinerea isolate (B05.10). In words: Detached leaf assay (tomato leaflets, lesion size). The format is in vivo. Conditions: five days post inoculation, vs untreated inoculated control. On the procedure: Plant tissue. Tomato plants, variety Brandywine, were grown in the greenhouse for 3 weeks before harvesting the first true leaves for assays. Nodes 2-4 were prioritized for harvest and only lateral leaflets were used for assays. Leaflets of approximately the same size were used each week and were randomized among treatments. Detached leaflets were immediately brought into the lab for treatment and used within 4 hours of harvest. Detached leaflets were kept at 4° C. until they were treated and placed onto a 1% water agar medium for incubation.
Fungal culture. A Botrytis cinerea isolate (B05.10) was preserved on silica for long-term storage and pulled from these tubes stored at 4° C. for growth on a nutritive medium. Three pellets of silica were added to the center of a Malt Extract Agar (MEA) agar plate and grown at room temperature without parafilm/tape seal for ˜14 days, or until abundant conidia formation, before use.
Treatment of leaflets. Leaflets were treated 24 hours before inoculation and applied using an atomizer to get a fine mist of small droplets entirely covering the leaflet. Silwet L-77 was used as a spreader and added for a 0.03% final concentration (Silwet L-77 brand Phyto Technology Laboratories, S7777 Lot #14D7777001 F). The inoculated control was sprayed with the same volume of sterile DI water with Silwet L-77 in the absence of fungicide or experimental material. Leaflets were spray treated by laying them on a paper towel and holding the atomizer ˜6″ away from the leaflet for applications. Treated leaves were placed on a 1% water agar (10 g Bacto Agar, Difco, in 1 L deionized water, sterilized for 30 minutes at 121° C. and poured when reached a temp of 55° C. into 100×20 mm Petri dishes), with lids of the Petri dishes placed back on before putting Petri dishes under plastic bags to maintain humidity before inoculation the following day. Petri dishes of treated leaflets were left on the lab counter until the following day. Each treatment was replicated ten times with each replicate being a single treated leaflet with two inoculation sites, one on each side of the leaf midvein.
Inoculation. The conidial suspension was prepared by pouring a 7% white grape juice solution onto the culture plate, then scraping the plate with a sterile spatula to dislodge the spores and mycelia. The grape juice solution was prepared by mixing Welch's brand organic white grape juice into sterile deionized water. After dislodging the spores and mycelia of the culture, the suspension was poured through two layers of cheesecloth to remove fungal mycelia and catch the conidial suspension in a clean 50 mL conical tube. Approximately 3 uL of TWEEN 20 was added to conidial suspension to prevent sticking to conical tube. The spore concentration was determined using a Neubauer Improved hemocytometer and inoculum was diluted with more 7% grape juice until a spore concentration of 1×10^5 conidia/mL was reached. Inoculum was used to inoculate host tissue within 2 hours of preparation. Each tomato leaflet was inoculated twice, with inoculation sites placed one per side of the leaflet midvein. A 10 μL volume of spore suspension was placed at each inoculation site using a repeater pipette. Special care was taken not to touch the tip to leaflet surface to avoid contamination between treatments.
Incubation. Petri dishes were placed on lunch trays 6 plates high and moved to an incubator. The incubator was humidity controlled and holds at ˜75% relative humidity. The incubator was kept on 12/12 light/dark days and is set to a temperature of 23° C.
Rating. Measurements were taken at five days post inoculation (DPI). Each lesion that developed was measured using electronic calipers in 2 directions perpendicular to each other to help determine lesion diameter.
Data analysis. Data was analyzed using the SAS JMP statistical program (version 13.2.1) with comparisons made to the untreated, inoculated control. […]

Series [2] has as its system Botrytis cinerea B05.10 isolate. In words: Greenhouse whole plant assay (tomato 'Lanai', disease severity). The series is classed as in vivo. Conditions: final rating day (rating #3). On the procedure: Plant Tissue: Tomato seedlings, variety “Lanai”, were seeded then thinned to one plant per pot in an 18 cell tray. […] Plants were grown at a 23° C./17° C. day/night temperature with 10 hours of light each 24-hour period. The RH was ambient and plants were fertilized two times a day every day except for Sunday when they received only water. Plants were grown using Fafard brand medium (70-80% sphagnum peat moss, perlite, vermiculite, dolomite limestone and watering agent) for the entire experiment.
Fungal culture. A Botrytis cinerea B05.10 isolate was maintained, and spores were harvested as previously described for detached leaf assays, except a grape juice additive was not used for inoculum preparation.
Treatment of plants. Whole tomato plants were treated ˜24 hours before inoculation using the spray booth. A 0.07% Silwet L-77 solution was used as a spreader and added for a 0.07% final volume in water (Silwet L-77 brand Phyto Technology Laboratories, S7777 Lot #14D7777001 F). The spray booth deck was set to 20″ above the plant canopy and a twinjet 8002EVS nozzle with 100 mesh filter placed into the spray mechanism. The spray boom was calibrated before treatment application with specs as follows: 50 GPA rate, 1.25 MPH speed, 6′ spray length, single pass, and at 45 psi to get a catch of 133 mL in 10 seconds (+/−6 mL). Each treatment was replicated ten times for each experimental run.
Inoculation. Plants were inoculated using a mist-o-matic applicator, which is pressurized by manual pumping. The inoculum suspension was poured into the mist-o-matic immediately before inoculation in the GH space. The containers were only filled half-way and inoculum was applied evenly to the surface of all foliage with even coverage.
Incubation. Plants were incubated inside of a 40″ tall humidity chamber supported by PVC pipe and covered in 3M translucent plastic. A humidifier was inside the chamber and set to low and continuous humidity (filled with tap water). The temperature was D:24-20° C./N:20-18° C. with 15 hours of light, of which 9 hours was with supplemental lighting. RH was ambient and watering occurred everyday by sub-irrigation with the bench being flooded for 10 minutes before draining.
Rating. Tomato plants were rated three times during the two-week experiment with rating starting four days post-inoculation and occurring every three to four days after the initial rating date. Plants were rated for the number of lesions and disease severity, which is the percentage of the plant that was symptomatic including necrotic lesions, pathogen sporulation, and chlorosis.
Data analysis. […] Percent disease severity (%DS) was determined by the percent area of the tomato foliage with symptoms including lesions, chlorosis, necrosis, and wilting. Disease severity was rated at three dates (Rating #) over the 12-day test period. Treatments were compared to the untreated, inoculated control and a chemical standard. Statistical analysis was done using SAS JMP version 13.2.1 with treatments compared to the untreated, inoculated control and a chemical standard using Tukey-Kramer and student's T tests.

B1: GS413: dsRNA trigger targeting B. cinerea NBP35 (XM_001552213.2); trigger SEQ ID NO 15, RNA 27, reverse complement 39 (nucleic acid, listed as Botrytis cinerea)
sense: GCAAAAUUCCAUUGUUGCUUUGUAAACAUCCAUCCUACGACUUUAUUAUCUCAUCGAUCAUCCCACAAUUUACAUUUUCCAUUUUACACUCAAUAAACAAUUGAAAAACAAUAUUCUGAGUUGGUCGCAGUAAAUCAUGGCUCCAUCUCUUGAGGAAAGGCCCGAUGCUGUGCAAGACGUCCUCUCAAAUCCUCUCAAAAAUGCUCCCAAACUUGUCGCCCCAGAACCUGAACAUUGUCCCGGUCCAGAAUCCGAAGCGGCGGGAAAGGCAGAUUCUUGCGCGGGCUGUCCAAACCAAGCCAUAUGCGCAUCCGCACCCAAAGGUCCCGAUCCAGAUAUUCCAGCUAUAACUGCACGUCUUGCUGGUAUCAAACAUAAAGUCUUAAUUCUGUCGGGGAAAGGUGGUGUAGGAAAAAGCACAUUUACAACUUUACUUGCACAUGCCUUCGCAACAAAUGAGGACAACACAGUAGGAAUCAU
antisense: AUGAUUCCUACUGUGUUGUCCUCAUUUGUUGCGAAGGCAUGUGCAAGUAAAGUUGUAAAUGUGCUUUUUCCUACACCACCUUUCCCCGACAGAAUUAAGACUUUAUGUUUGAUACCAGCAAGACGUGCAGUUAUAGCUGGAAUAUCUGGAUCGGGACCUUUGGGUGCGGAUGCGCAUAUGGCUUGGUUUGGACAGCCCGCGCAAGAAUCUGCCUUUCCCGCCGCUUCGGAUUCUGGACCGGGACAAUGUUCAGGUUCUGGGGCGACAAGUUUGGGAGCAUUUUUGAGAGGAUUUGAGAGGACGUCUUGCACAGCAUCGGGCCUUUCCUCAAGAGAUGGAGCCAUGAUUUACUGCGACCAACUCAGAAUAUUGUUUUUCAAUUGUUUAUUGAGUGUAAAAUGGAAAAUGUAAAUUGUGGGAUGAUCGAUGAGAUAAUAAAGUCGUAGGAUGGAUGUUUACAAAGCAACAAUGGAAUUUUGC
As to B1, the “Average % Reduction in Biomass” value in the series on Botrytis cinerea conidia (25 ppm dsRNA) was 14%; with Botrytis cinerea conidia (150 ppm dsRNA), 53%. For the same molecule, the figures for the “Average % Reduction in Lesion Size” value in series [1] (30 ppm) and in series [1] (50 ppm) were 35.58% and 20.66%, respectively. For the same molecule, the “% control” value is 34% in series [2] (8 g ai/ha, two runs, three-week-old 'Lanai' tomato plant) and 26% in series [2] (25 g ai/ha, two runs, three-week-old 'Lanai' tomato plant).

B2: GS659: dsRNA trigger targeting B. cinerea SDH (XM_001548300.2_200_pos_342); trigger SEQ ID NO 16, RNA 28, reverse complement 40 (nucleic acid, listed as Botrytis cinerea)
sense: UCAGAUGCGAACCAUGGCAUCAGUCGACAGCUCAGUACCUGAAAGUCCUACCGUUUCUCCAUCCCGUCCUGUCGAAUCUGCUUCCAAGACCUCCACUGUCAAGGAACCUGCUGCCGACUCGGAGUCUUUGAUCAAGACAUUCAACAUUUACAGAUGGAACCCAGAUGAGCCAACCAGCAAGCCCCGCAUGCAAUCUUACA
antisense: UGUAAGAUUGCAUGCGGGGCUUGCUGGUUGGCUCAUCUGGGUUCCAUCUGUAAAUGUUGAAUGUCUUGAUCAAAGACUCCGAGUCGGCAGCAGGUUCCUUGACAGUGGAGGUCUUGGAAGCAGAUUCGACAGGACGGGAUGGAGAAACGGUAGGACUUUCAGGUACUGAGCUGUCGACUGAUGCCAUGGUUCGCAUCUGA
As for B2, the results for the “Average % Reduction in Biomass” value with Botrytis cinerea conidia (25 ppm dsRNA) and in the series on Botrytis cinerea conidia (150 ppm dsRNA) were 12% and 28%, respectively. Also, the “Average % Reduction in Lesion Size” value in series [1] (30 ppm) turned out to be 21.31%; in series [1] (50 ppm), 19.19%. For the same molecule, in series [2] (25 g ai/ha, three runs, four-week-old 'Lanai' tomato plant), the “% control” value turned out to be 29%.
